Key:
[1] = biological target: T1, cynomolgus monkey CD96 on cynomolgus monkey PBMCs (cynomolgus monkey, UniProt A0A2K5TWV6 22-569); test: FACS, Ab 16 nM
T1 construct: whole, on cells
T1 sequence: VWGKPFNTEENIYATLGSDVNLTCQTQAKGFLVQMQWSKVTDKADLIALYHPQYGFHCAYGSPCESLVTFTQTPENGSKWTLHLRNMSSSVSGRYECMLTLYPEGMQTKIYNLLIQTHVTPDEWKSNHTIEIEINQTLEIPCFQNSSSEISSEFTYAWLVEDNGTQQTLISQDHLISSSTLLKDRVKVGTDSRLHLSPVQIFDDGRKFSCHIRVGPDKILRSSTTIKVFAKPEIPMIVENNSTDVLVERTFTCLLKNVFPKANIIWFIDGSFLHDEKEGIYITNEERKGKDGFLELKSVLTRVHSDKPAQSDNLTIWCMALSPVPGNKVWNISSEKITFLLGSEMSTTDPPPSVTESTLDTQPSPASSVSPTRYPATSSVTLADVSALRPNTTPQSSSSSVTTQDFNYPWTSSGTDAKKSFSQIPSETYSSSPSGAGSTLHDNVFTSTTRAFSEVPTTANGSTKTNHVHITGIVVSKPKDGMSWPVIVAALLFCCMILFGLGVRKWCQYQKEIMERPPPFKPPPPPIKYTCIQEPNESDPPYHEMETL
Description: (§1) The ability of the anti-CD96 antibodies to bind primary immune cells from human and cynomolgus monkey with lower level of receptor expression was measured. Human PBMCs (StemCell Technologies, catalog #70025) and cynomolgus monkey PBMCs (Primate Biologicals, catalog #CM-MC) were incubated with human TruStain FcX (Biolegend, catalog #422302) for 10 minutes at 4° C., followed by incubation with an anti-CD96 antibody for 20 minutes at 4° C. Cells were washed and the anti-CD96 antibody binding was detected by incubation with anti-mouse IgG-PE (Thermo Fisher, catalog #M30204) or anti-human IgG (Fab) 2-PE (Thermo Fisher, catalog #H10104) for 20 minutes at 4° C. Cells were washed, and immune subtypes were labeled with anti-CD3 (BD, catalog #557705), anti-CD4 (Biolegend, catalog #317424) and anti-CD8 (BD, catalog #557760) for 20 minutes at 4° C. Cell binding was analyzed by flow cytometry with a CytoFLEX (Beckman Coulter). Binding curves were calculated as a percentage of cells positive for bound antibody in the cell type of interest.

[2] = biological target: T1, cynomolgus monkey CD96 on cynomolgus …; test: FACS, Ab 3.2 nM
Description: as §1

[3] = biological target: T1, cynomolgus monkey CD96 on cynomolgus …; test: FACS, Ab 0.00512 nM
Description: as §1

[4] = biological target: T2, cy-CD96 Fc (cynomolgus monkey, biotinylated in Table 16); test: SPR 37C, biotin-CD96-Fc captured, IgG analyte
T2 construct: also called biotinylated cy-CD96-Fc
Description: Briefly, a 1:4 dilution of Biotin CAPture Reagent (GE Healthcare) into HBS-EP buffer (0.01 M HEPES pH 7.4, 0.15 M NaCl, 3 mM EDTA, 0.005% Surfactant P20) was applied to the chip at 2 µL/min flow rate. For the kinetics measurements, 20 nM biotinylated hu-CD96-Fc and cy-CD96-Fc was captured at 10 µL/min to achieve ~50 response units in the second flow cell (FC2). FC1 was kept as a reference. Next, 4-fold serial dilutions of IgG in HBS-P buffer (0.01 M HEPES pH 7.4, 0.15 M NaCl, 0.005% surfactant P20) from low (3.125 nM) to high (200 nM) concentration were injected (flow rate: 10 µL/min) at 37° C. The sensorgram was recorded and subject to reference and buffer subtraction before evaluating by BIACORE® 8K Evaluation Software (version 1.1.1.7442). Association rates ($kon$) and dissociation rates ($koff$) were calculated using a simple one-to-one Langmuir binding model. The equilibrium dissociation constant (K_D) value was calculated as the ratio of $koff/kon$.

[5] = biological target: T3, hu-CD96 isoform 2 on CHO cells (human, UniProt P40200 22-585); test: FACS, Ab 2 nM
T3 construct: also called CHO-CD96 (isoform 2); CD96-CHOs
T3 sequence: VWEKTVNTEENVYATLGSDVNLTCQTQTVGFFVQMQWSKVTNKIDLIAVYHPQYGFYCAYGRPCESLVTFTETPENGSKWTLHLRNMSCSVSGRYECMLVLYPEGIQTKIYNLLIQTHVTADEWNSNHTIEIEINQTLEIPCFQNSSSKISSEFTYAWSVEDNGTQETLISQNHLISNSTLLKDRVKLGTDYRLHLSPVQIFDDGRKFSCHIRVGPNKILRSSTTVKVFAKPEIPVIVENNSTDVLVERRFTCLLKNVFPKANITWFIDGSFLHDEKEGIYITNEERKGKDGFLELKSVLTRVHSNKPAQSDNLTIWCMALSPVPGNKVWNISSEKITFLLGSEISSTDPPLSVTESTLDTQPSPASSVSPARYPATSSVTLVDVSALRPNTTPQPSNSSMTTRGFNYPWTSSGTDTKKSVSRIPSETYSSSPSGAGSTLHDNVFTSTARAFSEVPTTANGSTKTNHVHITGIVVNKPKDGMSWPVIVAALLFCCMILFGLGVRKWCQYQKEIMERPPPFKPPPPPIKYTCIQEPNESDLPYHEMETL
Description: (§2) Isoform 1 of hu-CD96 (Origene, catalog #RC213845) was transiently expressed in HEK293T cells following standard lipofectamine or Fugene transfection protocol. […] Cells were washed, and binding was detected by incubation with anti-mouse IgG-FITC (Biolegend, catalog #406001) for 20 minutes at 4° C. Cell binding was analyzed by flow cytometry with a CytoFLEX (Beckman Coulter). Binding curves were calculated as a percentage of cells positive for bound antibody.
(§3) Isoform 2 of hu-CD96 (DNA construct: Origene, catalog #RC221005) was expressed on a single-cell-clone-derived CHO stable cell line. Binding of the anti-CD96 antibodies to the CHO cells were determined as described above with isoform 1 of hu-CD96.

[6] = biological target: T3, hu-CD96 isoform 2 on CHO cells; test: FACS, Ab 0.4 nM
Description: as §2, §3

[7] = biological target: T3, hu-CD96 isoform 2 on CHO cells; test: FACS, Ab 0.016 nM
Description: as §2, §3

[8] = biological target: T3, hu-CD96 isoform 2 on CHO cells; test: FACS, Ab 0.0032 nM
Description: as §2, §3

Binder	% positive [1]	% positive [2]	% positive [3]	Kd [4]	koff [4]	kon [4]	% positive [5]	% positive [6]	% positive [7]	% positive [8]
h10G1 IgG (humanized 10G1) (antibody, V domains shown, human IgG1 N297G) VH: EIQLVQSGSELKKPGASVKVSCKASGYPFTTYGMSWVRQAPGQGLEWMGWINTDSGVPTYADDFKGRFVFSLDTSVSTAYLQISSLKAEDTAVYFCARNIYYGWGNFDYWGQGTLVTVSS VL: EIVMTQSPDFQSVTPKEKVTITCRASQDIYRNLHWYQQKPDQTPKLLIKHASDSISGIPSRFSGSGSGTDFTLTINSLEAEDAAAYYCLQGYSMPYTFGGGTKVEIKG	66.1%	58.1%	7.4%	1.13 nM	0.00789 s⁻¹	6.99e+06 M⁻¹ s⁻¹	–	–	–	–
mAb1.v7 IgG (humanized 12F8) (antibody, V domains shown, human IgG1 N297G) VH: EVQLVQSGAEVKKPGASVKVSCKASGFTFTNNWMHWVRQAPGQGLEWIGMIHPNSGITNINEKFKNRVTMTTDTSTSTAYMELRSLRSEDTAVYYCRSDGTYEGYFDYWGQGTLVTVSS VL: DIQLTQSPSSLSASVGDRVTITCKASQNVGTAIVWYQQKPGKAPKVLIYSASTRYTGVPSRFSGSGSGTDFTLTISSLQPEDFATYYCQQYSSSPLTFGQGTKVEIKG	–	–	–	–	–	–	42.4%	17.7%	0.4%	0.5%
mAb1.v7.NGS9 IgG (antibody, V domains shown, human IgG1 N297G) VH: EVQLVQSGAEVKKPGASVKVSCKASGFTFTNNFMHWVRQAPGQGLEWIGMIHANSGITNINEKFKNRVTMTTDTSTSTAYMELRSLRSEDTAVYYCRSDGVYEGYFDYWGQGTLVTVSS VL: DIQLTQSPSSLSASVGDRVTITCKASQNVGTAIVWYQQKPGKAPKVLIYSASTRYTGVPSRFSGSGSGTDFTLTISSLQPEDFATYYCQQYSSSPLTFGQGTKVEIKG	76.1%	77.9%	7.1%	2.88 nM	0.000734 s⁻¹	255000 M⁻¹ s⁻¹	–	–	–	–
mAb1.v7.NGS10 IgG (antibody, V domains shown, human IgG1 N297G) VH: EVQLVQSGAEVKKPGASVKVSCKASGFTFTNNFMHWVRQAPGQGLEWIGFIHANSGITNINEKFKNRVTMTTDTSTSTAYMELRSLRSEDTAVYYCRSDGIYEGYFDYWGQGTLVTVSS VL: DIQLTQSPSSLSASVGDRVTITCKASQNVGTAIVWYQQKPGKAPKVLIYSASTRYTGVPSRFSGSGSGTDFTLTISSLQPEDFATYYCQQYSSSPLTFGQGTKVEIKG	78.5%	76.7%	9.5%	0.49 nM	0.000374 s⁻¹	767000 M⁻¹ s⁻¹	–	–	–	–
mAb1.v7.NGS11 IgG (antibody, V domains shown, human IgG1 N297G) VH: EVQLVQSGAEVKKPGASVKVSCKASGFTFTNNFMHWVRQAPGQGLEWIGFIHANSGITNINEKFKNRVTMTTDTSTSTAYMELRSLRSEDTAVYYCRSDGVYEGYFDYWGQGTLVTVSS VL: DIQLTQSPSSLSASVGDRVTITCKASQNVGTAIVWYQQKPGKAPKVLIYSASTRYTGVPSRFSGSGSGTDFTLTISSLQPEDFATYYCQQYSSSPLTFGQGTKVEIKG	80.8%	78.4%	10.4%	1.52 nM	0.000513 s⁻¹	338000 M⁻¹ s⁻¹	–	–	–	–
7E5, purified hybridoma antibody (antibody, V domains shown, murine hybridoma IgG) VH: QVQLKESGPGLVAPSQSLSIICTVSGFSLTNYGIHWIRQPPGKGLEWLGIIWAGGSTNYNSALMSRLTISKDNSKSQVFLKMNSLQTNDTAIYYCARVSMMGFAYWGQGTLVTVSA VL: QAVVTQESALTTSPGETVTLTCRSSTGAVTTSNYANWVQEKPDHLFTGLIGGTNNRAPGVPARFSGSLIGDKAALTITGAQTEDEAIYFCSLWYGSHWVFGGGTKLTVL	–	–	–	–	–	–	53.3%	44.1%	3.6%	0.1%
9H4, purified hybridoma antibody (antibody, V domains shown, murine hybridoma IgG) VH: EVQLLETGGGLVKSGGSLKLSCAASGFTFSDYYMYWVRQTPEKRLEWVAAISDDGTYTYYPDSVKGRFTISRDNANNYLYLQMSSLKSEDTAIYYCAKAGSYDYFDVWGAGTTVTVSS VL: DIVLTQSPASLAVSLGQRAIISCKASQSVTFADTGLMHWYQQKPGQQPKLLIYRASNLEVGVPTRFSGSGSGTDFTLNIHPVEEEDVATYYCQQSREYPWTFGGGTKLEIK	–	–	–	–	–	–	44.2%	24.1%	0.3%	0.3%
10G1 (clone 10G1.3G8), purified hybridoma antibody (antibody, V domains shown, murine hybridoma IgG) VH: QIQLVQSGPELKKPGETVKISCKASGYPFTTYGMSWVKQAPGKGLKWMGWINTDSGVPTYADDFKGRFAFSLETSANTAYLQINSLKNEDAATYFCARNIYYGWGNFDYWGQGTILTVSS VL: DILMTQSPTTLSVTPGETVSLSCRASQDIYRNLHWYQQKSQGTPRLLIKHASDSISGIPSRFTGSGSGTDFTLSINSVKPEDEGIYYCLQGYSMPYTFGGGTKLEIK	–	–	–	–	–	–	34.9%	25%	0.4%	0.1%
